The experiment deals with human 4-1BB on Jurkat cells (Promega) (human) (UniProt Q07011). The experiment in a line: cell-based or functional assay.
Sequence of human 4-1BB on Jurkat cells (Promega) (human) (Q07011 24-255): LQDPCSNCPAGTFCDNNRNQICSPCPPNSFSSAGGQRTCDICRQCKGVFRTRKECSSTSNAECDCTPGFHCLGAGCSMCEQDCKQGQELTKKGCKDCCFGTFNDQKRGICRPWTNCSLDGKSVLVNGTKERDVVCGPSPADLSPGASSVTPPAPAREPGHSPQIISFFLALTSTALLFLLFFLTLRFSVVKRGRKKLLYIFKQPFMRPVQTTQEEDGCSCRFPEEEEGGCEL

Take Urelumab (BMS-663513) (antibody): the EC50 (nM), 4-1BB NFκB luciferase reporter bioassay, CHO-hROR1 100% was determined as 0.235 nM.

These data come from patent publication US20260015418A1.
